{"source": "paper PMC6319916", "about": "(Biochemistry, 2018)", "key": {"[1]": {"molecular_target": "T1, 3-hydroxy-3-methylglutaryl coenzyme A reductase (DaHMGR) (Delftia acidovorans, UniProt A9BQX8)", "T1 sequence (A9BQX8 1-429)": "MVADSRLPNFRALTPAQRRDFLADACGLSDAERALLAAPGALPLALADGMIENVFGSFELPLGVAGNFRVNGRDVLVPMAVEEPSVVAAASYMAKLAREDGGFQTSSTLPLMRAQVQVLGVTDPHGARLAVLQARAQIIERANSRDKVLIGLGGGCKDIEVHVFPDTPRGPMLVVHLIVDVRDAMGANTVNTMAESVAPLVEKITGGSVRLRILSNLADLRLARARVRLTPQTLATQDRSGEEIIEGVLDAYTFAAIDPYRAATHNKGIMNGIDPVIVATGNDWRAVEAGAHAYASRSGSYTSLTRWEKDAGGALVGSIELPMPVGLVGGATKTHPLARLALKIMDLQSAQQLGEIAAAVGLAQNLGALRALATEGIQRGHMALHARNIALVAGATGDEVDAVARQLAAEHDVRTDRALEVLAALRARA", "experiment": "X-ray crystal structure", "format": "binding"}, "purified protein": {"substrate": "CC(C)(COP(=O)(O)OP(=O)(O)OC[C@H]1O[C@@H](n2cnc3c(N)ncnc32)[C@H](O)[C@@H]1OP(=O)(O)O)[C@@H](O)C(=O)NCCC(=O)NCCSC(=O)C[C@@](C)(O)CC(=O)O", "experiment": "purified protein", "details": "NADH"}}, "data": [{"molecule": "C[C@@](O)(CCO)CC(=O)O", "note": "[mevalonate]", "values": [{"measurement": "X-ray crystal structure (1.49 Å)", "setting": "[1]", "value": "in the mevalonate-bound DaHMGR structure, positive difference maps showed density in the active site, representing mevalonate binding"}]}, {"molecule": "3-hydroxy-3-methylglutaryl coenzyme A reductase (DaHMGR) (Delftia acidovorans SPH-1) (protein) MVADSRLPNFRALTPAQRRDFLADACGLSDAERALLAAPGALPLALADGMIENVFGSFELPLGVAGNFRVNGRDVLVPMAVEEPSVVAAASYMAKLAREDGGFQTSSTLPLMRAQVQVLGVTDPHGARLAVLQARAQIIERANSRDKVLIGLGGGCKDIEVHVFPDTPRGPMLVVHLIVDVRDAMGANTVNTMAESVAPLVEKITGGSVRLRILSNLADLRLARARVRLTPQTLATQDRSGEEIIEGVLDAYTFAAIDPYRAATHNKGIMNGIDPVIVATGNDWRAVEAGAHAYASRSGSYTSLTRWEKDAGGALVGSIELPMPVGLVGGATKTHPLARLALKIMDLQSAQQLGEIAAAVGLAQNLGALRALATEGIQRGHMALHARNIALVAGATGDEVDAVARQLAAEHDVRTDRALEVLAALRARA", "values": [{"measurement": "Km", "setting": "purified protein", "value": "7.34 ± 0.71", "unit": "µM"}, {"measurement": "kcat", "setting": "purified protein", "value": 22.3, "unit": "s⁻¹"}, {"measurement": "kcat/Km", "setting": "purified protein", "value": "3.04e+06", "unit": "M⁻¹ s⁻¹"}]}]}
